The target in the assay is RNA polymerase II (Pol II) immunopurified from HeLa cell nuclear extracts (human (endogenous in HeLa)) (UniProt P24928). Nature of the assay: negative stain electron microscopy; minimal PIC (DNA/TBP/TFIIA/TFIIB/Pol II/TFIIF) assembled sequentially on biotinylated promoter DNA, GST-ORF24-NTD added last; purified on streptavidin beads, eluted with EcoRI, cross-linked with 0.05% glutaraldehyde; 2D and 3D classification and difference maps, ~20 A.

The text below walks through data of article PMC7498053.

Turning to “GST-ORF24-NTD (KSHV ORF24 residues 1-201 with an N-terminal GST tag) (domain or fragment)”, the percent of PIC particle images with extra density amounted to 25%.
